This note sets out measurements from patent US20200239573A1 (CRESCENDO BIOLOGICS, published 2020).

B1: Humabody® 1.67 (VHH)
VHH: QVQLVESGGGLVKPGGSLRLSCAASGFTFSGSSMTWMRQAPGKGLEWVSYISSGGGVIFYADSVKGRFTISRDNAKNSLYLQMNSLRADDTAVYYCAREAPLRLGESPHDAFDISGQGTMVTVSS
B2: Humabody® 1.70 (VHH)
VHH: QVQLVESGGGLVKPGGSLRLSCAASGFTFGDSSMTWMRQAPGKGLEWVSYISSGGAVKFYTDSVKGRFTISRDNAKNSLYLQMNSLRADDTAVYYCAREAPLRLGESPHDAFDISGQGTMVTVSS
B3: Humabody® 1.71 (VHH)
VHH: QVQLVESGGGLVKPGGSLRLSCAASGFTFGGSSMTWMRQAPGKGLEWVSYISSGGGVKFYTDSVKGRFTISRDNAKNSLYLQMNSLRADDTAVYYCAREAPLRLGESPHDAFDISGQGTMVTVSS
B4: Humabody® 1.72 (VHH)
VHH: QVQLVESGGGLVKPGGSLRLSCAASGFTFSDSSMSWMRQAPGKGLEWVSYISSGGGVIFYADSVKGRFTISRDNAKNSLYLQMNSLRADDTAVYYCAREAPLRLGESPHDAFDISGQGTMVTVSS
B5: Humabody® 1.69 (VHH)
VHH: QVQLVESGGGLVKPGGSLRLSCAASGFTFSDNSMSWMRQAPGKGLEWVSYISSGGGVIFYADSVKGRFTISRDNAKNSLYLQMNSLRADDTAVYYCAREAPLRLGESPHDAFDISGQGTMVTVSS
B6: Humabody® 1.48 (VHH)
VHH: QVQLVESGGGLVKPGGSLRLSCAASGFTFSDSSMTWMRQAPGKGLEWVSYISSGGGVKFYADSVKGRFTISRDNAKNSLYLQMNSLRADDTAVYYCAREAPLRLGESPHDAFDIWGQGTMVTVSS
notes: human VH single domain antibody
B7: Humabody® 1.45 (VHH)
VHH: QVQLVESGGGLVKPGGSLRLSCAASGFTFSDYSMSWMRQAPGKGLEWVSYISSGGGVIFYADSVKGRFTISRDNAKNSLYLQMNSLRADDTAVYYCAREAPLRLGESPHDAFDIWGQGTMVTVSS
notes: as for B6
B8: Humabody® 1.47 (VHH)
VHH: QVQLVESGGGLVKPGGSLRLSCAASGFTFSDNSMSWMRQAPGKGLEWVSYISSGGGVIFYADSVKGRFTISRDNAKNSLYLQMNSLRADDTAVYYCAREAPLRLGESPHDAFDIWGQGTMVTVSS
notes: as for B6
B9: Humabody® 1.46 (VHH)
VHH: QVQLVESGGGLVKPGGSLRLSCAASGFTFSDSSMSWMRQAPGKGLEWVSYISSGGGVIFYADSVKGRFTISRDNAKNSLYLQMNSLRADDTAVYYCAREAPLRLGESPHDAFDIWGQGTMVTVSS
notes: as for B6
B10: Humabody® 1.41 (VHH)
VHH: QVQLVESGGGLVKPGGSLRLSCAASGFTFSDNSMTWMRQAPGKGLEWVSYISSGGGVIFYADSVKGRFTISRDNAKNSLYLQMNSLRADDTAVYYCAREAPLRLGESPHDAFDIWGQGTMVTVSS
notes: as for B6
B11: Humabody® 1.49 (VHH)
VHH: QVQLVESGGGLVKPGGSLRLSCAASGFTFSDSSMSWMRQAPGKGLEWVSYISTGGGVKFYADSVKGRFTISRDNAKNSLYLQMNSLRADDTAVYYCAREAPLRLGESPHDAFDIWGQGTMVTVSS
notes: as for B6
B12: Humabody® 1.55 (VHH)
VHH: QVQLVESGGGLVKPGGSLRLSCAASGFTFSDNSMTWMRQAPGKGLEWVSYISSGGGVKFYADSVKGRFTISRDNAKNSLYLQMNSLRADDTAVYYCAREAPLRLGESPHDAFDISGQGTMVTVSS
notes: as for B6
B13: Humabody® 1.50 (VHH)
VHH: QVQLVESGGGLVKPGGSLRLSCAASGFTFSDNSMTWMRQAPGKGLEWVSYISSGGTIKFYADSVKGRFTISRDNAKNSLYLQMNSLRADDTAVYYCAREAPLRLGESPHDAFDIWGQGTMVTVSS
notes: as for B6
B14: Humabody® 1.56 (VHH)
VHH: QVQLVESGGGLVKPGGSLRLSCAASGFTFSDNSMTWMRQAPGKGLEWVSYISSGGAVKFYADSVKGRFTISRDNAKNSLYLQMNSLRADDTAVYYCAREAPLRLGESPHDAFDILGQGTMVTVSS
notes: as for B6
B15: Humabody® 1.52 (VHH)
VHH: QVQLVESGGGLVKPGGSLRLSCAASGFTFSDNSMTWMRQAPGKGLEWVSYISSGGGVKYYADSVKGRFTISRDNAKNSLYLQMNSLRADDTAVYYCAREAPLRLGESPHDAFDIWGQGTMVTVSS
notes: as for B6
B16: Humabody® 1.54 (VHH)
VHH: QVQLVESGGGLVKPGGSLRLSCAASGFTFSDDSMTWMRQAPGKGLEWVSYISSGGGVIFYADSVKGRFTISRDNAKNSLYLQMNSLRADDTAVYYCAREAPLRLGESPHDAFDIWGQGTMVTVSS
notes: as for B6
B17: Humabody® 1.94 (VHH)
VHH: EVQLVESGGGLVKPGGSLRLSCAASGFTFSDWSMTWMRQAPGKGLEWVSYISSGGGVKFYADSVKGRFTISRDNAKNSLYLQMNSLRAEDTAVYYCAREAPLRLGESPHDAFDISGQGTMVTVSS
notes: as for B6
B18: Humabody® 1.101 (VHH)
VHH: EVQLVESGGGLVKPGGSLRLSCAASGFTFSDFSMTWMRQAPGKGLEWVSYISSGGGVKFYADSVKGRFTISRDNAKNSLYLQMNSLRAEDTAVYYCAREAPLRLGESPHDAFDISGQGTMVTVSS
notes: as for B6
B19: 1.77-4GS-non-blocking VH (3) (bispecific antibody)
chain: EVQLVESGGGLVKPGGSLRLSCAASGFTFSDSSMTWMRQAPGKGLEWVSYISSGGGVKFYTDSVKGRFTISRDNAKNSLYLQMNSLRAEDTAVYYCAREAPLRLGESPHDAFDISGQGTMVTVSSGGGGSGGGGSGGGGSGGGGSEVQLVESGGGLVQPGRSLRLSCAASGFTFDDYAMHWVRQAPGKDLEWVSGISWNGGSMGYAASVKGRFTISRDNAKNSLYLQMNSLRAEDTALYYCVREKGPGLTGSTADYYGLDVWGQGTMVTVSS
B20: Humabody® 1.84 (VHH)
VHH: EVQLVESGGGLVKPGGSLRLSCAASGFTFSDESMTWMRQAPGKGLEWVSYISSGGGVKFYTDSVKGRFTISRDNAKNSLYLQMNSLRAEDTAVYYCAREAPLRLGESPHDAFDISGQGTMVTVSS
notes: as for B6
B21: Humabody® 1.105 (VHH)
VHH: EVQLVESGGGLVKPGGSLRLSCAASGFTFSDESLTWMRQAPGKGLEWVSYISSGGGVKFYTDSVKGRFTISRDNAKNSLYLQMNSLRAEDTAVYYCAREAPLRLGESPHDAFDISGQGTMVTVSS
notes: as for B6
B22: Humabody® 1.104 (VHH)
VHH: EVQLVESGGGLVKPGGSLRLSCAASGFTFSDESFTWMRQAPGKGLEWVSYISSGGGVKFYTDSVKGRFTISRDNAKNSLYLQMNSLRAEDTAVYYCAREAPLRLGESPHDAFDISGQGTMVTVSS
notes: as for B6

“And” between values parts separate entries of the source, which are not always exact repeats. Equal entries are not always repeated.

One may read the Kd as the constant that tells how readily two partners part at equilibrium. As usually defined, the koff is the rate constant with which the complex falls apart. A word on the kon: it is a measure of how fast the partners come together. One may read the IC50 as the concentration at which inhibition is half-maximal.

T3 sequence (Q15116 25-170 limits assumed): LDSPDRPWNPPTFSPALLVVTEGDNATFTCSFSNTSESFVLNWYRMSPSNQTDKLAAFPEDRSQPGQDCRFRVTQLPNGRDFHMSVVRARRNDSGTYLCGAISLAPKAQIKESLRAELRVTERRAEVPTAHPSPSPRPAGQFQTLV

One assay deals with T1, human PD-1 expressed on cells (CHO human PD-1 cells) (human, UniProt Q15116 21-288). Kind of assay: cell-based or functional assay.
T1 sequence (Q15116 21-288): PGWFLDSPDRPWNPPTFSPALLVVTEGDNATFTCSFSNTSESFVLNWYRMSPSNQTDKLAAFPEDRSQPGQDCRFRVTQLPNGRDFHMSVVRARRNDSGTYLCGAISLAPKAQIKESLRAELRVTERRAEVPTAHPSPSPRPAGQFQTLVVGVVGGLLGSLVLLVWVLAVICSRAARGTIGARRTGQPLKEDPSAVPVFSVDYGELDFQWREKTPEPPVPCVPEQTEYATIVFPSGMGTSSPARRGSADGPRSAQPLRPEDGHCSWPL
In the case of B1, the “Reporter Assay EC50” value came to 12 nM.
B2: the “Reporter Assay EC50” value came to 29 nM.
Turning to B3, the “Reporter Assay EC50” value was found to be 7.43 nM.
In the case of B4, the “Reporter Assay EC50” value came to 26.1 nM.
As for B5, the “Reporter Assay EC50” value was found to be 35 nM.
Turning to B6, the “Reporter Assay EC50” value amounted to 18 nM.
On to B7, for which the “Reporter Assay EC50” value was 74 nM.
As to B8, the “Reporter Assay EC50” value was 27 nM.
With B9, the “Reporter Assay EC50” value is 45 nM.

The target in a further assay is T2, recombinant human PD-1 Fc chimera (human, UniProt Q15116 25-167).
T2 construct: Bought protein; also called human PD-1-huFc; huPD-1-Fc; not shown: human Fc
T2 sequence (Q15116 25-167 limits assumed, change not shown): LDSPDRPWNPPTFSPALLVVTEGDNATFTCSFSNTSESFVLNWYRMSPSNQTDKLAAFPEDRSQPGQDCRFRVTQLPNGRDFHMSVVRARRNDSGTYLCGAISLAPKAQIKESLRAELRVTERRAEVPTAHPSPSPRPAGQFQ
As to the kind of experiment: SPR Biacore T200, PD-1-huFc amine-coupled, single cycle kinetics. The method, then: Binding kinetics of certain VH single domain antibodies binding to human PD-1-huFc were measured by surface plasmon resonance (SPR) technology using Biacore T200 instrument (GE Healthcare). Recombinant human PD-1-huFc was immobilized by standard amine coupling to CM5 sensorschip (GE Healthcare) using in range of 0.1-0.01 mg/ml solution of antigen in 10 mM sodium acetate at pH 5.5. For the reference flow cell, a blank immobilisation was carried out. Single cycle kinetics assays were used to study the interaction, a five point, three-fold dilution series of each Humabody® was made with a top concentration of 30 nM. The binding kinetics were followed by flowing the Humabody® over the chip surface in HBS EP+ buffer at a flow rate of 30 μl/min. The contact time for each of the association steps was 180 seconds and the dissociation step was varied between 1200-3600 seconds. The data was fitted to a 1:1 binding model after double reference subtraction using the Biacore T200 Evaluation software.
In general terms: In SPR one partner is held on a chip, and binding of the other changes the refractive index at the surface.
In the case of B10, the Kd was found to be 0.0552 nM and the koff was 2.96e-05 s⁻¹.
Regarding B11, the Kd came to 0.11 nM, the koff amounted to 2.89e-05 s⁻¹ and the kon worked out at 263000 M⁻¹ s⁻¹.
Consider B6, for which the Kd was found to be 0.106 nM, the koff is 5.24e-05 s⁻¹ and the kon was found to be 496000 M⁻¹ s⁻¹.
Consider B12, for which the Kd is 0.0364 nM, the koff was found to be 1.95e-05 s⁻¹ and the kon worked out at 535000 M⁻¹ s⁻¹.
In the case of B13, the Kd came out at 0.0581 nM, the koff amounted to 2.34e-05 s⁻¹ and the kon came out at 402000 M⁻¹ s⁻¹.
On to B14, for which the Kd stood at 0.0355 nM, the koff worked out at 1.53e-05 s⁻¹ and the kon turned out to be 432000 M⁻¹ s⁻¹.
Regarding B15, the Kd is 0.299 nM and 0.256 nM; the koff was 6.14e-05 s⁻¹ and 7.61e-05 s⁻¹; the kon was 205000 M⁻¹ s⁻¹ and 297000 M⁻¹ s⁻¹.
With B16, the Kd turned out to be 0.0856 nM, the koff is 4.53e-05 s⁻¹ and the kon amounted to 530000 M⁻¹ s⁻¹.

The next assay has as its target T1, human PD-1 expressed on cells (CHO …). Kind of assay: FMAT epitope competition on CHO human PD-1 cells; competitor 1 nM 1.1-Strep. The method, then:
For the epitope competition assay reagents were prepared in FMAT assay buffer. […] Plates were incubated for a minimum of 1.5 hours at room temperature then fluorescence measured in the FL2 (502 nm-537 nm) and FL5 (677-800 nm) channels on the Mirrorball plate reader (TTP) following excitation at 488 nm and 640 nm. Data was expressed as a % of the total binding control (i.e. % control) after subtraction of the background signal determined from the non-specific binding control wells.
In turn, B17 displayed an IC50 of 4.2 nM.
The molecule B7 gave an IC50 of 2.5 nM. Compared with the last molecule, the IC50 is about 1.7-fold lower.
The same measure, in the same setting: under B18 stands 3 nM; under B8, 4.4 nM; under B9, 1.8 nM.

A further assay has as its target T3, Strep tagged recombinant human PD-1 (human, UniProt Q15116 25-170, limits assumed).
T3 construct: the whole entry is named; also called strep tagged human PD-1; not shown: Strep tag
Kind of assay: SPR Biacore T200, strep-tagged PD-1 amine-coupled, single cycle kinetics. The method, then: Single cycle kinetics assays were used to study the interaction between human PD-1 with Humabody® on a Biacore T200 instrument (GE Healthcare). Strep tagged recombinant human PD-1 was amine coupled to one flow cell of a CM-5 chip to create a low density surface (14 RU) using standard Biacore reagents. For the reference flow cell, a blank immobilisation was carried out. A five-point, three-fold dilution series of each Humabody® was made with a top concentration of 25 nM. The binding kinetics were followed by flowing the Humabody® over the chip surface in HBS EP+ buffer at a flow rate of 30 μl/min. The contact time for each of the association steps was 180 seconds and the dissociation step was 3300 seconds. The data was fitted to a 1:1 binding model after double reference subtraction using the Biacore T200 Evaluation software.
Take B19: the Kd was found to be 0.063 nM, the koff was found to be 3.5e-05 s⁻¹ and the kon was determined as 550000 M⁻¹ s⁻¹.
For B20 the same measures were 0.091 nM, 7.6e-05 s⁻¹ and 830000 M⁻¹ s⁻¹.
For the molecule B21, the Kd amounted to 0.091 nM, the koff amounted to 8.7e-05 s⁻¹ and the on-rate (kon) turned out to be 950000 M⁻¹ s⁻¹.
Turning to B22, the Kd came to 0.08 nM, the koff came out at 6.3e-05 s⁻¹ and the kon worked out at 780000 M⁻¹ s⁻¹.
